The target of the test is T1, Biotinylated Human TREM2 Protein,His,Avitag (TR2-H82E7, ACRObiosystems) (human, UniProt Q9NZC2 19-174, biotinylated (Avitag)).
T1 construct: Bought protein; also called huTREM2,Biotin,His,Avitag; Biotinylated human TREM2 protein with a streptavidin tag; not shown: His tag and Avitag
T1 sequence (looked up): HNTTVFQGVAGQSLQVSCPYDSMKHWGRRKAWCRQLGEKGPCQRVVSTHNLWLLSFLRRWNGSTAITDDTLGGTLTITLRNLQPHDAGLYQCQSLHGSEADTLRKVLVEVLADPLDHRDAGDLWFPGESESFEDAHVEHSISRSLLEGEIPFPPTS
Put plainly: flow cytometry: CAR-transduced Jurkat NFAT cells stained with Biotinylated Human TREM2 Protein and Streptavidin APC; also sorted with the protein and streptavidin beads. An excerpt:
Constructs 3, 7, 8 and 10 are all constructs of the present invention, which comprise a CAR comprising a TREM2 scFv. Non-transduced cells (mock) and transduced cells were collected and stained for flow cytometry using Biotinylated Human TREM2 Protein (TR2-H82E7 ACRObiosystems) and Streptavidin APC as a secondary antibody. Cells were sorted using Streptavidin magnetic beads, columns (miltenyi) and Biotinylated Human TREM2 Protein (TR2-H82E7 ACRObiosystems).
On day 4 after transduction, Jurkat NFAT cells were stained for surface expression of the anti-TREM2 CARs using Biotinylated Human TREM2 Protein (TR2-H82E7 ACRObiosystems) and Streptavidin-APC as a secondary antibody. On day 7, CAR expressing cells were selected using Streptavidin magnetic beads (Streptavidin MicroBeads, 130-048-101, Miltenyi), columns (Miltenyi) and Biotinylated Human TREM2 Protein (TR2-H82E7 ACRObiosystems) and then used for subsequent activation assays.

B1: construct 7 (anti-TREM2 CAR comprising a TREM2 scFv) (other)
chain: QVQLQQSGPGLVKPSQTLSLTCAISGDSVSSSSAAWNWIRQSPSRGLEWLGHIGYRSKWYNEYAVSVKSRITINPDTSKNQFSLQLNSVTPEDTAVYYCARGMYGSVPYKEGYYFDIWGQGTLVTVSSGGGGSGGGGSGGGGSDIQMTQSPSSLSASVGDRVTITCRASQGISSDLNWYQQKPGKAPKLLIYAASNLQSGVPSRFSGSGSGTDFTLTISSLQPEDFATYYCQQYTDESMTFGQGTKVEIKLRVFSSVVPVLQKVNSTTTKPVLRTPSPVHPTGTSQPQRPEDCRPRGSVKGTGLDFACDIYIWAPLAGICVALLLSLIITLICYHRQLWTNSRRNRLLQSDYMNMTPRRPGLTRKPYQPYAPARDFAAYRPRAKFSRSAETAANLQDPNQLYNELNLGRREEYDVLEKKRARDPEMGGKQQRRRNPQEGVYNALQKDKMAEAYSEIGTKGERRRGKGHDGLYQGLSTATKDTYDALHMQTLAPR
notes: Chimeric antigen receptor with an anti-TREM2 scFv, expressed on the surface of Jurkat NFAT cells or murine Tregs after retroviral transduction; the construct also encodes GFP
As for B1, the binding result is “binds”.

B2: construct 3 (anti-TREM2 CAR comprising a TREM2 scFv) (other)
chain: EVQLVQSGAEVKKPGESLKISCKGSGYTFTSYWIGWVRQMPGKGLEWMGIIYPGDSDTRYSPSFQGQVTISVDKSSSTAYLQWSSLKASDTAIYYCTRQAIAVTGLGGFDPWGQGTLVTVSSGGGGSGGGGSGGGGSEIVLTQSPGTLSLSPGERATLSCRASQSVSSSYLAWYQQKPGQAPRLLIYGASSRATGIPDRFSGSGSGTDFTLTISRLEPEDFALYYCQQYDTSPFTFGPGTKVDIKLRVFSSVVPVLQKVNSTTTKPVLRTPSPVHPTGTSQPQRPEDCRPRGSVKGTGLDFACDIYIWAPLAGICVALLLSLIITLICYHRQLWTNSRRNRLLQSDYMNMTPRRPGLTRKPYQPYAPARDFAAYRPRAKFSRSAETAANLQDPNQLYNELNLGRREEYDVLEKKRARDPEMGGKQQRRRNPQEGVYNALQKDKMAEAYSEIGTKGERRRGKGHDGLYQGLSTATKDTYDALHMQTLAPR
notes: as for B1
With B2, the binding result is “binds”.

B3: construct 8 (anti-TREM2 CAR comprising a TREM2 scFv) (other)
chain: QVQLVQSGAEVKKPGASVKVSCKASGYTFTGYHMSWVRQAPGQGLEWMGVINPVSGNTVYAQKFQGRVTMTRDTSISTAYMELSRLRSEDTAVYYCARIPSYTYAFDYWGQGTLVTVSSGGGGSGGGGSGGGGSDIQMTQSPSSLSASVGDRVTITCRASQDISNYLAWYQQKPGKAPKLLIYRASSLQSGVPSRFSGSGSGTDFTLTISSLQPEDFATYYCQQHGHSPTTFGQGTKVEIKLRVFSSVVPVLQKVNSTTTKPVLRTPSPVHPTGTSQPQRPEDCRPRGSVKGTGLDFACDIYIWAPLAGICVALLLSLIITLICYHRQLWTNSRRNRLLQSDYMNMTPRRPGLTRKPYQPYAPARDFAAYRPRAKFSRSAETAANLQDPNQLYNELNLGRREEYDVLEKKRARDPEMGGKQQRRRNPQEGVYNALQKDKMAEAYSEIGTKGERRRGKGHDGLYQGLSTATKDTYDALHMQTLAPR
notes: the construct also encodes GFP
Turning to B3, the binding result was “binds”.

B4: construct 10 (anti-TREM2 CAR comprising a TREM2 scFv) (other)
chain: EVQLLESGGGLVQPGGSLRLSCAASGFTFSNYYMAWVRQAPGKGLEWVSSLTNSGGSTYYADSVKGRFTISRDNSKNTLYLQMNSLRAEDTAVYYCTREWAGSGYFDYWGQGTLVTVSSGGGGSGGGGSGGGGSDIQMTQSPSSLSASVGDRVTMTCKASQNVGNNLAWYQQKPGKAPKLLLYYTSNRFTGVPSRFSGSGSGTDFTLTISSVQPEDFATYYCQRIYNSPWTFGQGTKLELKLRVFSSVVPVLQKVNSTTTKPVLRTPSPVHPTGTSQPQRPEDCRPRGSVKGTGLDFACDIYIWAPLAGICVALLLSLIITLICYHRQLWTNSRRNRLLQSDYMNMTPRRPGLTRKPYQPYAPARDFAAYRPRAKFSRSAETAANLQDPNQLYNELNLGRREEYDVLEKKRARDPEMGGKQQRRRNPQEGVYNALQKDKMAEAYSEIGTKGERRRGKGHDGLYQGLSTATKDTYDALHMQTLAPR
notes: as for B1
In the case of B4, the binding result is listed as “binds”.

For the origin of these results see patent US20240390422A1 (QUELL THERAPEUTICS, published 2024).
